Test results published in publication PMC11189301, “Structure of the human outer kinetochore KMN network complex” (Nature Structural & Molecular Biology, 2024).

T1: MIS12 complex (Mis12, Pmf1, Dsn1, Nsl1), wild type, full length (Homo sapiens, UniProt Q9H081 1-205; Q6P1K2 1-205; Q9H410 1-356; Q96IY1 1-281)
T1 construct: Mis12, subunit of human MIS12C; Pmf1, subunit of human MIS12C; Dsn1, subunit of human MIS12C; Nsl1, subunit of human MIS12C; The DS tag on Pmf1 is TEV cleavable; a cleavage is not described; also called MIS12C (WT); wild-type MIS12C; source: High-5 insect cells (baculovirus), purified (Strep-Tactin, Resource S, Superdex 200); copies: + + +
T1 sequence (looked up) 1: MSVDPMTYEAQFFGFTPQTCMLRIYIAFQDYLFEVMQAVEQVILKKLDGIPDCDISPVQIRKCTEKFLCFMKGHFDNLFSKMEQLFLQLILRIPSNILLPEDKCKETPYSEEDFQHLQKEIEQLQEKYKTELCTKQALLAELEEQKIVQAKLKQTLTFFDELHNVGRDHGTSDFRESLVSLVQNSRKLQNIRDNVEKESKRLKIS
T1 sequence (looked up) 2: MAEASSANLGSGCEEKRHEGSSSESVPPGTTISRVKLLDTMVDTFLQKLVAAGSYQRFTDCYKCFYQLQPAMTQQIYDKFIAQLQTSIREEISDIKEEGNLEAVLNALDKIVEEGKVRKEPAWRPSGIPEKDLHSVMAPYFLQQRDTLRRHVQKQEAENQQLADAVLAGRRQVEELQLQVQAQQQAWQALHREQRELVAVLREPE
T1 sequence (looked up) 3: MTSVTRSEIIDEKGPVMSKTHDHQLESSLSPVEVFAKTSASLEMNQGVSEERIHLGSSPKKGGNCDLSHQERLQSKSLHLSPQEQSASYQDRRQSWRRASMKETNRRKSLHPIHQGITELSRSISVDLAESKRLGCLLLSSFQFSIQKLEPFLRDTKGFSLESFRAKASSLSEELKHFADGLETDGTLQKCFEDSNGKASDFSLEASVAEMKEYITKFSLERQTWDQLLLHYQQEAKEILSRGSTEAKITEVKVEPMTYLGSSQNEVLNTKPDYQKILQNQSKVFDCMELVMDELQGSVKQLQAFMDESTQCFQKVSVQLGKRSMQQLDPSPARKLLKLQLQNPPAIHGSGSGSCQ
T1 sequence (looked up) 4: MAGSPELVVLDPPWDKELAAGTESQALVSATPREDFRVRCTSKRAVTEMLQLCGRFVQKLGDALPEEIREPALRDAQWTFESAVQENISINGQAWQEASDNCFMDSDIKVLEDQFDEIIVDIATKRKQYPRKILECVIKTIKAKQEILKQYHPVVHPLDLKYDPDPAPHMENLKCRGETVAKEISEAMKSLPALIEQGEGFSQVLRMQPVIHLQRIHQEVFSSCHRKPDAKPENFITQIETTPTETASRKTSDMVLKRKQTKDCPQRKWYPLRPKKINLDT


Assays:
MIS12C (WT) = target: T2, MIS12C (WT) (Homo sapiens, UniProt Q6P1K2+Q96IY1+Q9H081+Q9H410); test: Isothermal titration calorimetry (ITC), peptide titrated into wild-type MIS12C; format: binding; conditions: 20 °C, 20 mM HEPES pH 7.5, 100 mM NaCl, 1 mM TCEP, syringe Dsn1^92-113 W96A/R97A/R98A 1.0 mM, cell MIS12C(WT) 0.089 mM, listed as Dsn1^92–113 peptide with three Ala residues
T2 construct: TEV-cleavable double Strep II (DS) tag (C); made in house; host or cells: High-5 insect cells (baculovirus)

NDC80C = test: SEC assessment of MIS12C mutants binding to NDC80C; parameters: species or system Homo sapiens; conditions: MIS12C mutant + wild-type NDC80 at 4 µM each; 20 mM HEPES pH 7.8, 150 mM NaCl, 0.5 mM TCEP; Superose 6; SDS-PAGE; at least two repeats
Method: Assessment of substitutions in the MIS12C–NDC80C interfaces
To test the effect of substitutions in the MIS12C–NDC80C interfaces, either wild-type MIS12C or three MIS12C mutants (MIS12C^Nsl1-E219R V220R F221A, MIS12C^Dsn1-P332W R334A L336R, MIS12C^Nsl1-E219R V220R F221A, Dsn1-P332W R334A L336R) were mixed with wild-type NDC80 at 4 µM each in a buffer of 20 mM HEPES (pH 7.8), 150 mM NaCl and 0.5 mM TCEP, and 50 µl was loaded onto a Superose 6 size-exclusion column (Cytiva).
Extended Data Fig. 7 Biochemical characterization of MIS12C:NDC80C interactions. a Coomassie blue-stained SDS-PAGE gels of the MIS12C:NDC80C interaction reconstitutions. MIS12C (WT), MIS12C with E219/RV220R/F221A substitutions in Nsl1 (MIS12C^Nsl1 E219/RV220R/F221A) and MIS12C with P332W/R334A/L336R substitutions in Dsn1 (MIS12C^Dsn1 P332W/R334A/L336R) were tested for binding to full-length, unmodified NDC80C. The binding experiments were repeated at least two independent times with identical results. The gels are aligned according to the fraction number of the protein sample eluted from the size exclusion column. b SEC elution chromatograms of all of the experiments described in (a). c. Comparison of the Spc24:Spc25 interaction with peptides from MIS12C and CENP-T (PDB ID: 3VZA ref. [29]). Source data

[1] = target: T1, MIS12 complex (Mis12, Pmf1, Dsn1, …); test: SEC; MIS12C or MIS12C^Nsl1ΔC mixed with Knl1 2131–2337 or its mutants at 4 µM each; 20 mM HEPES pH 7.8, 150 mM NaCl, 0.5 mM TCEP; Superose 6; fractions on SDS-PAGE; conditions: both partners purified

Molecule	MIS12C–NDC80C interaction by SEC, in words (NDC80C)	other results
RRQSAAAASMKETNRRKSLHPI-AW [Dsn1^92–113 W96A R97A R98A, Dsn1^92–113 peptide with WRR linchpin substituted by three Ala residues]	–	Kd / interaction of mutant Dsn1^92–113 peptide, in words (MIS12C (WT)): completely abolished
Nsl1-E219R V220R F221A mutant: MIS12C with E219R V220R F221A substitutions in Nsl1 (protein, left off: double strep II (DS), C-terminal, state not stated) chain 1: MSVDPMTYEAQFFGFTPQTCMLRIYIAFQDYLFEVMQAVEQVILKKLDGIPDCDISPVQIRKCTEKFLCFMKGHFDNLFSKMEQLFLQLILRIPSNILLPEDKCKETPYSEEDFQHLQKEIEQLQEKYKTELCTKQALLAELEEQKIVQAKLKQTLTFFDELHNVGRDHGTSDFRESLVSLVQNSRKLQNIRDNVEKESKRLKIS chain 2: MAEASSANLGSGCEEKRHEGSSSESVPPGTTISRVKLLDTMVDTFLQKLVAAGSYQRFTDCYKCFYQLQPAMTQQIYDKFIAQLQTSIREEISDIKEEGNLEAVLNALDKIVEEGKVRKEPAWRPSGIPEKDLHSVMAPYFLQQRDTLRRHVQKQEAENQQLADAVLAGRRQVEELQLQVQAQQQAWQALHREQRELVAVLREPE chain 3: MTSVTRSEIIDEKGPVMSKTHDHQLESSLSPVEVFAKTSASLEMNQGVSEERIHLGSSPKKGGNCDLSHQERLQSKSLHLSPQEQSASYQDRRQSWRRASMKETNRRKSLHPIHQGITELSRSISVDLAESKRLGCLLLSSFQFSIQKLEPFLRDTKGFSLESFRAKASSLSEELKHFADGLETDGTLQKCFEDSNGKASDFSLEASVAEMKEYITKFSLERQTWDQLLLHYQQEAKEILSRGSTEAKITEVKVEPMTYLGSSQNEVLNTKPDYQKILQNQSKVFDCMELVMDELQGSVKQLQAFMDESTQCFQKVSVQLGKRSMQQLDPSPARKLLKLQLQNPPAIHGSGSGSCQ chain 4: MAGSPELVVLDPPWDKELAAGTESQALVSATPREDFRVRCTSKRAVTEMLQLCGRFVQKLGDALPEEIREPALRDAQWTFESAVQENISINGQAWQEASDNCFMDSDIKVLEDQFDEIIVDIATKRKQYPRKILECVIKTIKAKQEILKQYHPVVHPLDLKYDPDPAPHMENLKCRGETVAKEISEAMKSLPALIEQGEGFSQVLRMQPVIHLQRIHQRRASSCHRKPDAKPENFITQIETTPTETASRKTSDMVLKRKQTKDCPQRKWYPLRPKKINLDT	reduced the affinity of MIS12C for NDC80C	–
Dsn1-P332W R334A L336R and Nsl1-E219R V220R F221A mutants: MIS12C combining the Dsn1 and Nsl1 interface mutants (protein, left off: double strep II (DS), C-terminal, state not stated) chain 1: MSVDPMTYEAQFFGFTPQTCMLRIYIAFQDYLFEVMQAVEQVILKKLDGIPDCDISPVQIRKCTEKFLCFMKGHFDNLFSKMEQLFLQLILRIPSNILLPEDKCKETPYSEEDFQHLQKEIEQLQEKYKTELCTKQALLAELEEQKIVQAKLKQTLTFFDELHNVGRDHGTSDFRESLVSLVQNSRKLQNIRDNVEKESKRLKIS chain 2: MAEASSANLGSGCEEKRHEGSSSESVPPGTTISRVKLLDTMVDTFLQKLVAAGSYQRFTDCYKCFYQLQPAMTQQIYDKFIAQLQTSIREEISDIKEEGNLEAVLNALDKIVEEGKVRKEPAWRPSGIPEKDLHSVMAPYFLQQRDTLRRHVQKQEAENQQLADAVLAGRRQVEELQLQVQAQQQAWQALHREQRELVAVLREPE chain 3: MTSVTRSEIIDEKGPVMSKTHDHQLESSLSPVEVFAKTSASLEMNQGVSEERIHLGSSPKKGGNCDLSHQERLQSKSLHLSPQEQSASYQDRRQSWRRASMKETNRRKSLHPIHQGITELSRSISVDLAESKRLGCLLLSSFQFSIQKLEPFLRDTKGFSLESFRAKASSLSEELKHFADGLETDGTLQKCFEDSNGKASDFSLEASVAEMKEYITKFSLERQTWDQLLLHYQQEAKEILSRGSTEAKITEVKVEPMTYLGSSQNEVLNTKPDYQKILQNQSKVFDCMELVMDELQGSVKQLQAFMDESTQCFQKVSVQLGKRSMQQLDPSWAAKRLKLQLQNPPAIHGSGSGSCQ chain 4: MAGSPELVVLDPPWDKELAAGTESQALVSATPREDFRVRCTSKRAVTEMLQLCGRFVQKLGDALPEEIREPALRDAQWTFESAVQENISINGQAWQEASDNCFMDSDIKVLEDQFDEIIVDIATKRKQYPRKILECVIKTIKAKQEILKQYHPVVHPLDLKYDPDPAPHMENLKCRGETVAKEISEAMKSLPALIEQGEGFSQVLRMQPVIHLQRIHQRRASSCHRKPDAKPENFITQIETTPTETASRKTSDMVLKRKQTKDCPQRKWYPLRPKKINLDT	completely abolished MIS12C–NDC80C interactions	–
Knl1 residues 2131–2337, mut2 (S2270R S2272W) (domain or fragment, H. sapiens, UniProt Q8NG31 2131-2337, looked up, Knl1, human, residues 2131-2337, RWD-C surface mutant 2; also called Knl1^mut2; KNL1^mut2; source: E. coli BL21 (DE3), purified (Ni-NTA, reverse IMAC, Superdex 75); not shown: His6, N-terminal, cleaved) SLSEWDVVEWSDDQAVFTFVYDTIQLTITFEESVVGFPFLDKRYRKIVDVNFQSLLDEDQAPPSSLLVHKLIFQYVEEKESWKKTCTTQHQLPKMLEEFSLVVHHCRLLGEEIEYLKRWGPNYNLMNIDINNNELRLLFRSWAAFAKFEITLFLSAYYPSVPLPSTIQNHVGNTSQDDIATILSKVPLENNYLKNVVKQIYQDLFQD	–	binding result [1]: binds
